Test results from article PMC10921949, “Multivalent coiled-coil interactions enable full-scale centrosome assembly and strength” (The Journal of Cell Biology, 2024).

B1: SPD-5(541–677) (domain or fragment, C. elegans, UniProt P91349 541-677, looked up)
chain: SQSHIPILHDMQQILDSSAMFLEGQHDVAVNVEQMQEKMSQIREALARLFERLKSSAALFEEILERMGSSDPNADKIKKMKLAFETSINDKLNVSAILEAAEKDLHNMSLNFSILEKSIVSQAAEASRRFTIAPDAE
notes: Used alone and after incubation with kinase-dead PLK-1 (unphosphorylated); also called helical hairpin; source: Arctic Express bacteria, purified (Ni-NTA, Superdex 75 size exclusion)
B2: SPD-5(541–677) phosphorylated by PLK-1(CA) (domain or fragment, C. elegans, UniProt P91349 541-677, looked up)
chain: SQSHIPILHDMQQILDSSAMFLEGQHDVAVNVEQMQEKMSQIREALARLFERLKSSAALFEEILERMGSSDPNADKIKKMKLAFETSINDKLNVSAILEAAEKDLHNMSLNFSILEKSIVSQAAEASRRFTIAPDAE
modifications: phosphorylated by PLK-1 (verified by gel migration shift and MS); sites of this sample not listed in the text
notes: also called phosphorylated hairpin; source: Arctic Express bacteria, purified (Ni-NTA, Superdex 75 size exclusion); then incubated with PLK-1(CA)
B3: SPD-5(541–677) R592K (domain or fragment, C. elegans, UniProt P91349 541-677, looked up)
chain: SQSHIPILHDMQQILDSSAMFLEGQHDVAVNVEQMQEKMSQIREALARLFEKLKSSAALFEEILERMGSSDPNADKIKKMKLAFETSINDKLNVSAILEAAEKDLHNMSLNFSILEKSIVSQAAEASRRFTIAPDAE
notes: source: purified

Molecular target: the molecule itself
Assay: mass photometry; 50 nM SPD-5(541–677) in PBS on a glass coverslip (TwoMP, Refeyn), alone or after 20 min with 20 nM PLK-1(KD) or PLK-1(CA); dimers seen down to 10 nM

Stoichiometry N, 2:
B1
B2
B3
